Assay results from patent US20230212587A1, “Mutant Hydroxyphenylpyruvate Dioxygenase Polypeptide, Encoding Gene Thereof and Use Therefor” (Beijing Dabeinong Biotechnology Co., Ltd., priority 2019, published 2023).
Numbering of substitutions follows the chain as printed. Names and notes keep the numbering of the source.

B1: AsHPPDm-Q284A: Avena sativa HPPD mutant Q284A, SEQ ID NO: 420 (protein)
chain: MPPTPATATGAAAAAVTPEHAARSFPRVVRVNPRSDRFPVLSFHHVELWCADAASAAGRFSFALGAPLAARSDLSTGNSAHASLLLRSGALAFLFTAPYAPPPQEAATAAATASIPSFSADAARTFAAAHGLAVRSVGVRVADAAEAFRVSVAGGARPAFAPADLGHGFGLAEVELYGDVVLRFVSYPDETDLPFLPGFERVSSPGAVDYGLTRFDHVVGNVPEMAPVIDYMKGFLGFHEFAEFTAEDVGTTESGLNSVVLANNSEAVLLPLNEPVHGTKRRSAIQTYLEYHGGPGVQHIALASNDVLRTLREMRARTPMGGFEFMAPPQAKYYEGVRRIAGDVLSEEQIKECQELGVLVDRDDQGVLLQIFTKPVGDRPTFFLEMIQRIGCMEKDEVGQEYQKGGCGGFGKGNFSELFKSIEDYEKSLEVKQSVVAQKS
modifications: AsHPPDm-Q284A Amino Acid Sequence
B2: AsHPPDm-L359W: Avena sativa HPPD mutant L359W, SEQ ID NO: 422 (protein)
chain: B1 chain with A284Q, L359W
modifications: AsHPPDm-L359W Amino Acid Sequence
B3: PfHPPDm-G413W: Pseudomonas fluorescens HPPD with G336W (position 413 of SEQ ID NO: 1), SEQ ID NO: 418 (protein)
chain: MADLYENPMGLMGFEFIEFASPTPGTLEPIFEIMGFTKVATHRSKNVHLYRQGEINLILNNEPNSIASYFAAEHGPSVCGMAFRVKDSQKAYNRALELGAQPIHIDTGPMELNLPAIKGIGGAPLYLIDRFGEGSSIYDIDFVYLEGVERNPVGAGLKVIDHLTHNVYRGRMVYWANFYEKLFNFREARYFDIKGEYTGLTSKAMSAPDGMIRIPLNEESSKGAGQIEEFLMQFNGEGIQHVAFLTDDLVKTWDALKKIGMRFMTAPPDTYYEMLEGRLPDHGEPVDQLQARGILLDGSSVEGDKRLLLQIFSETLMGPVFFEFIQRKGDDGFGEWNFKALFESIERDQVRRGVLTAD
modifications: PfHPPDm-G413W Amino Acid Sequence

System: Arabidopsis thaliana T1 plants
Assay: Topramezone tolerance of transgenic Arabidopsis thaliana T1 plants (pesticide damage grade by bleached leaf area, score, resistance evaluation)
Format: in vivo
Settings: for tolerance to topramezone, in words: Arabidopsis thaliana T1 plants sprayed with topramezone; for Grade 0 / Grade 1 / Grade 2 / Grade 3: number of plants (of 20) in this grade
Source text: The Arabidopsisthaliana T1 plants into which the AsHPPDm-F372A-02 nucleotide sequence was introduced, Arabidopsis thaliana T1 plants into which the AsHPPD-02 nucleotide sequence was introduced and wild-type Arabidopsisthaliana plants (18 days after sowing) were sprayed with topramezone at four different concentrations, i.e., 25 g ai/ha (one-fold field concentration, 1×), 50 g ai/ha (two-fold field concentration, 2×), 100 g ai/ha (four-fold field concentration, 4×) and 0 g ai/ha (water, 0×) to determine the tolerance of Arabidopsisthaliana to the herbicide. The degree of damage caused by the herbicide was measured for each plant according to the proportion of bleached leaf area (the proportion of bleached leaf area=bleached leaf area/total leaf area×100%) 7 days after spraying (7 DAT): the case where there is basically no bleached phenotype is defined as grade 0, the case where the proportion of bleached leaf area is less than 50% is defined as grade 1,the case where the proportion of bleached leaf area is more than 50% is defined as grade 2, and the case where the proportion of bleached leaf area is 100% grade is defined as grade 3.
According to the method as described above in point 6 of Example 1, the aforementioned Arabidopsisthaliana T1 plants and wild-type Arabidopsisthaliana plants (18 days after sowing) were sprayed with topramezone at three different concentrations respectively, i.e., 25 g ai/ha (one-fold field concentration, 1×), 100 g ai/ha (four-fold field concentration, 4×) and 0 g ai/ha(water, 0×) to detect the tolerance of Arabidopsisthaliana to the herbicide.
According to the method as described above in point 6 of Example 1, the aforementioned Arabidopsisthaliana T1 plants and wild-type Arabidopsisthaliana plants (18 days after sowing) were sprayed with topramezone at three different concentrations respectively, i.e., 25 g ai/ha (one-fold field concentration, 1x), 100 g ai/ha (four-fold field concentration, 4x) and 0 g ai/ha (water, 0x) to detect the tolerance of Arabidopsisthaliana to the herbicide.
According to the method as described above in point 6 of Example 1, the above-mentioned Arabidopsisthaliana T1 plants, Arabidopsisthaliana T1 plants into which the AsHPPD-02 nucleotide sequence was introduced, Arabidopsisthaliana T1 plants into which the PfHPPD-02 nucleotide sequence was introduced, and wild-type Arabidopsisthaliana plants (18 days after sowing) were sprayed with topramezone at four different concentrations respectively, that is, 25 g ai/ha (one-fold field concentration, 1x), 50 g ai/ha (two-fold field concentration, 2x), 100 g ai/ha (four-fold field concentration, 4x) and 0 g ai/ha (water, Ox) to detect the herbicide tolerance of Arabidopsisthaliana.
According to the method as described in point 6 of Example 1, the above-mentioned Arabidopsisthaliana T1 plants and wild-type Arabidopsisthaliana plants (18 days after sowing) were sprayed with topramezone at two different concentrations respectively, that is, 25 g ai/ha (one-fold field concentration, 1x) and 100 g ai/ha (four-fold field concentration, 4x) to detect the herbicide tolerance of Arabidopsisthaliana,. […]

[1] = non-372 position mutants, topramezone 25 g ai/ha (1x)
[2] = non-372 position mutants, topramezone 100 g ai/ha (4x)
[3] = non-372 position mutants, score for pesticide damage 0-100, topramezone 25 g ai/ha (1x)
[4] = non-372 position mutants, score for pesticide damage 0-100, topramezone 100 g ai/ha (4x)
[5] = topramezone 25 g ai/ha, mutation combination, Table 8
[6] = topramezone 100 g ai/ha, mutation combination, Table 8

Molecule	tolerance to topramezone, in words	Grade 0 [1]	Grade 1 [1]	Grade 2 [1]	Grade 3 [1]	Grade 0 [2]	Grade 1 [2]	Grade 2 [2]	Grade 3 [2]	score [3]	score [4]	Resistance Grade [1]	Resistance Grade [2]	further results
B1	no significant difference	0	2	16	2	0	0	5	15	67	92	poorly resistant (poorly resistant plants (scores 34-67))	non-resistant (non-resistant plants (scores 68-100))	
B2	no significant difference	0	0	2	18	0	0	0	20	97	100	non-resistant (non-resistant plants (scores 68-100))	non-resistant (non-resistant plants (scores 68-100))	
B3	a certain tolerance to low concentration of topramezone													Grade 0 (number of plants) [5]: 2; Grade 1 (number of plants) [5]: 18; Grade 2 (number of plants) [5]: 0; Grade 3 (number of plants) [5]: 0; Resistance Grade [5]: Moderately resistant; score [5]: 30; Grade 0 (number of plants) [6]: 0; Grade 1 (number of plants) [6]: 0; Grade 2 (number of plants) [6]: 10; Grade 3 (number of plants) [6]: 10; Resistance Grade [6]: Non-resistant; score [6]: 83
